Measured values reported in article PMC4628070, “Independent Mechanisms Target SMCHD1 to Trimethylated Histone H3 Lysine 9-Modified Chromatin and the Inactive X Chromosome” (Molecular and Cellular Biology, 2015).

Legend:
[1] = target: Full-length FLAG-tagged recombinant SMCHD1 (mouse) (UniProt Q6P5D8); assay: negative-stain electron microscopy; purified FLAG-rSMCHD1, 100 ng/ml, 0.75% uranyl formate, 80 kV
[2] = target: the molecule itself; assay: SEC; affinity-purified wild-type and mutant hinge domains on a Superdex 75 10/300 column, 0.5-ml fractions, A280 and Coomassie-stained SDS-PAGE

“Full-length FLAG-tagged recombinant SMCHD1, Q6P5D8 1-2007” gave a stoichiometry N [1] of 2.

B1: SMCHD1 hinge domain, recombinant wild type (residues 1616 to 1963) (domain or fragment, mouse, UniProt Q6P5D8 1616-1963, looked up)
chain: NDVKKQQQMAALTKEKDELSKSITMYRSLFDANKQLVDEMKCQAEEAKLKETQLRNELKAYNIDIPATQQTTHIEALLEKKITEQNELKKRPRRLCTLPNYTKRSGDILGKIAHLAQIEDDRAAMVISWHLASDMDCVVTLTTDAARAIYDETQGRQQVLPLDSIYRKTLPDWKRPLPHFRNGKLHFKPFGNPVFARDLLTFPDNIEHCETVFGMLLGDTIILDNLDAANHYRKEVVKITHCPTLLTRDGDRIRSNGKFGGLQNKAPPMDKLRGMVFGAPVPKQCVVLGKQIDLIQQYRTALYRLSSVNEDLDNQLQYLHTPDMKKKKQELDEQEKSLKRIEQKLGMT
notes: SMCHD1 SMC hinge domain, mouse, residues 1616 to 1963; Cloned into pET28a; also called wild-type HD; WT hinge; source: E. coli BL21-RosettaBlue, purified (Talon resin)
For B1, the “stoichiometry N” value [2] was 2.
